Data from article PMC3722562.

Assays:
HER2-GST fusion (human) = HER2-GST fusion (human) (UniProt P04626); test: not stated (cited); conditions: 2'-fluoro pyrimidines (general statement); Cell assays mostly in DPBS at 37 C (4 C for surface binding), washes DPBS, 0.5 M NaCl +/- 0.2 N acetic acid or trypsin; Qdot flow after 10% FBS/DPBS block …; cited from earlier work
[1] = target: PSMA (prostate specific membrane antigen) (human) (UniProt Q04609); test: not stated (cited); conditions: 2'-fluoro pyrimidines; Cell assays mostly in DPBS at 37 C (4 C for surface binding), washes DPBS, 0.5 M NaCl +/- 0.2 N acetic acid or trypsin; Qdot flow after 10% FBS/DPBS block …; cited from earlier work
PSMA (prostate specific membrane antigen) (human), sequence (Q04609 whole entry): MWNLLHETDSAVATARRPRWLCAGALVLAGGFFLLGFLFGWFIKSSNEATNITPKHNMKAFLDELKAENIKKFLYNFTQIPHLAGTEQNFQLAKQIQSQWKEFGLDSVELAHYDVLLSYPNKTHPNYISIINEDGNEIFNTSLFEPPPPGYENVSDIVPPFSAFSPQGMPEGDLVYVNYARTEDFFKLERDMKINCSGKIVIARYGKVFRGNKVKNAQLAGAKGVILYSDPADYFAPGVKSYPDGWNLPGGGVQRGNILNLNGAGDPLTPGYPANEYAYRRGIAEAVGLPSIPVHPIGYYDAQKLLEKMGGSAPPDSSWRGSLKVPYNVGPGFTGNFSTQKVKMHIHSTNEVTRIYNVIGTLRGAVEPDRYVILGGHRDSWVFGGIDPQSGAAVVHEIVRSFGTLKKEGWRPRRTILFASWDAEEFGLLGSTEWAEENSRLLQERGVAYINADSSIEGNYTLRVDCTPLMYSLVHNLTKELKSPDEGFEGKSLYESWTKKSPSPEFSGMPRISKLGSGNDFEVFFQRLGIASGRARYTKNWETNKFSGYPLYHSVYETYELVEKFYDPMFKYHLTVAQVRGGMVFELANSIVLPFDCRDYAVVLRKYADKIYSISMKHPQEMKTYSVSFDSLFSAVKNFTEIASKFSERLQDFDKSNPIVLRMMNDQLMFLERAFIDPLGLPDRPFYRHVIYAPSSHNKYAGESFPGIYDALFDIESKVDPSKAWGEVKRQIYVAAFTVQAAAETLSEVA

[2] = target: PSMA on PC3(PSMA+) cells (human?) (UniProt Q04609); test: NIR cell uptake (QUSIM); conditions: 10 nM, 15 min, 37 C, trypsin wash, 2'-fluoro pyrimidines, Cell assays mostly in DPBS at 37 C (4 C for surface binding), washes DPBS, 0.5 M NaCl +/- 0.2 N acetic acid or trypsin, Qdot flow after 10% FBS/DPBS block …
PSMA on PC3(PSMA+) cells (human?), sequence (Q04609 whole entry): as above

HER2 (rat) (rat) = HER2 (rat) (rat) (UniProt P06494); test: not stated (cited); conditions: 2'-fluoro pyrimidines; Cell assays mostly in DPBS at 37 C (4 C for surface binding), washes DPBS, 0.5 M NaCl +/- 0.2 N acetic acid or trypsin; Qdot flow after 10% FBS/DPBS block …; cited from earlier work
HER2 (rat) (rat), sequence (P06494 whole entry): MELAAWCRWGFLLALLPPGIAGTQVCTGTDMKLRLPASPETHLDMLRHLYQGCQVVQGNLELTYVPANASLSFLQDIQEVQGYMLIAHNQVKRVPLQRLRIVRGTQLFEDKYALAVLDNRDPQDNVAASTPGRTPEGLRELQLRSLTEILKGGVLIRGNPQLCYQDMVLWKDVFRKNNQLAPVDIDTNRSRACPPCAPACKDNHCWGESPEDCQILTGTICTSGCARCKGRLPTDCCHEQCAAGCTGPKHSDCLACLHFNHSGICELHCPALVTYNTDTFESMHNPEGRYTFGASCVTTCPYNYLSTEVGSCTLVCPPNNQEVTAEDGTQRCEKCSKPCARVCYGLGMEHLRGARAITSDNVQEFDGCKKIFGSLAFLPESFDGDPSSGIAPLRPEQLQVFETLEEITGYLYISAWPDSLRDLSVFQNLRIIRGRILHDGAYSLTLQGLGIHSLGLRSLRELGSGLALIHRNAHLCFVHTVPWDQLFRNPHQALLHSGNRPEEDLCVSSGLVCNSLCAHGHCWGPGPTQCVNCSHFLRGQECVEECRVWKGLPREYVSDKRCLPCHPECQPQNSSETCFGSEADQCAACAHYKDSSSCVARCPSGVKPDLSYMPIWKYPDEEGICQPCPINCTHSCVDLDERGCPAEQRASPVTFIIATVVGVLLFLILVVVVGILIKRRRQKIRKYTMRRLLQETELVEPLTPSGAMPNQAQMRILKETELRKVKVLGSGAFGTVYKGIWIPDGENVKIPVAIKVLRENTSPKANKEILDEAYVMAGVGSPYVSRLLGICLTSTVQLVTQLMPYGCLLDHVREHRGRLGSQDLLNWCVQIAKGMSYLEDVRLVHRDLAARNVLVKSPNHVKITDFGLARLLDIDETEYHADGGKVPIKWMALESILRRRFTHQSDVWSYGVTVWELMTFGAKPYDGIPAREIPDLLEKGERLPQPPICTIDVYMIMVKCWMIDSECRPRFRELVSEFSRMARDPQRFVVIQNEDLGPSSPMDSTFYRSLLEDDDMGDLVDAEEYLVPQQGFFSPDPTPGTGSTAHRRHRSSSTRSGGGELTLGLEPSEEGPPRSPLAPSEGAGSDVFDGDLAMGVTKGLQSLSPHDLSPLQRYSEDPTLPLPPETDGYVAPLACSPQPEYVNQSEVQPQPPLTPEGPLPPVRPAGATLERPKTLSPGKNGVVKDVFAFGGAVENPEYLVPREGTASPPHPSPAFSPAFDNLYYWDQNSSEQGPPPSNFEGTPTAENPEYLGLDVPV

TrkB (mouse) (mouse) = TrkB (mouse) (mouse) (UniProt P15209); test: not stated (cited); conditions: 2'-fluoro pyrimidines; Cell assays mostly in DPBS at 37 C (4 C for surface binding), washes DPBS, 0.5 M NaCl +/- 0.2 N acetic acid or trypsin; Qdot flow after 10% FBS/DPBS block …; cited from earlier work
TrkB (mouse) (mouse), sequence (P15209 whole entry): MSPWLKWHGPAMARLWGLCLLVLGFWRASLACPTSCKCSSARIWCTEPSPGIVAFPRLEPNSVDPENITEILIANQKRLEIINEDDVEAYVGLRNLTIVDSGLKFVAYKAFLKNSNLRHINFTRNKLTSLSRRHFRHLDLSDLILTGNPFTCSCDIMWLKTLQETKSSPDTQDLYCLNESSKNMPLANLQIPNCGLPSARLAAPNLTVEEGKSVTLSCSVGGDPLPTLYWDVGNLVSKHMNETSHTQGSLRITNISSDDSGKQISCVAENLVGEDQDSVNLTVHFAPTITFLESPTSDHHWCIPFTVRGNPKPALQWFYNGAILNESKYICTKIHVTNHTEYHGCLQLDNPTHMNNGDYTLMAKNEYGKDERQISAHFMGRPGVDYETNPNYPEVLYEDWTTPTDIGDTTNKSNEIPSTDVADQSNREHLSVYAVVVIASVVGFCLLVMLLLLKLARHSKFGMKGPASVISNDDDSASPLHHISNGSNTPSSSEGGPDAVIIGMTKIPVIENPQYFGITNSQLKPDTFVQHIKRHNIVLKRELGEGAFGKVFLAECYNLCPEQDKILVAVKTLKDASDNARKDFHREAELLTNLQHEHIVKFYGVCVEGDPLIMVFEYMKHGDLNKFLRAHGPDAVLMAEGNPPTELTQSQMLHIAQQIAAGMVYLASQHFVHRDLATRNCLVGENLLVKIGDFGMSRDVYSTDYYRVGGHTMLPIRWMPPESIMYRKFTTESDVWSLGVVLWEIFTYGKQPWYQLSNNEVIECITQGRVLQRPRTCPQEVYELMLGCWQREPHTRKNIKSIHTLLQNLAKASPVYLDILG

AGCCGCGAGGGGAGGGAUAGGGUAGGGCGCGGCU [hHER2-apt]
Kd (HER2-GST fusion (human)): 3.5 nM

GGGACCGAAAAAGACCUGACUUCUAUACUAAGUCUACGUUCCC [A9g]
Kd [1]: 5 nM
binding signal (% of input internalized) ([2]; <1% in PSMA- cells): 13

GGGACCGAAAAAGACCUGGCUUCUAUACUAAGUCUACGUUCCC [A9g.6]
binding signal (% of input internalized) [2]: < 0.5

GGGAGGACGAUGCGGUCCUGUCGUCUGUUCGUCCCCAGACGACUCGCCCGA [E1]
Kd (HER2 (rat) (rat)): 60.8 nM

GGGAGGACGAUGCGGUCGUAUUAUCCGCUGCACGCCAGACGACUCGCCCGA [C4-3]
Kd (TrkB (mouse) (mouse)): 2 nM
